Measurements taken from article doi:10.1101/2020.12.17.423260.

Target: 3Dpol-WT (RNA-dependent RNA polymerase) (Foot-and-mouth disease virus, UniProt P03305 1863-2332)
Assay: fluorescence polarisation anisotropy

Chain of 3Dpol-WT (RNA-dependent RNA polymerase) (P03305 1863-2332): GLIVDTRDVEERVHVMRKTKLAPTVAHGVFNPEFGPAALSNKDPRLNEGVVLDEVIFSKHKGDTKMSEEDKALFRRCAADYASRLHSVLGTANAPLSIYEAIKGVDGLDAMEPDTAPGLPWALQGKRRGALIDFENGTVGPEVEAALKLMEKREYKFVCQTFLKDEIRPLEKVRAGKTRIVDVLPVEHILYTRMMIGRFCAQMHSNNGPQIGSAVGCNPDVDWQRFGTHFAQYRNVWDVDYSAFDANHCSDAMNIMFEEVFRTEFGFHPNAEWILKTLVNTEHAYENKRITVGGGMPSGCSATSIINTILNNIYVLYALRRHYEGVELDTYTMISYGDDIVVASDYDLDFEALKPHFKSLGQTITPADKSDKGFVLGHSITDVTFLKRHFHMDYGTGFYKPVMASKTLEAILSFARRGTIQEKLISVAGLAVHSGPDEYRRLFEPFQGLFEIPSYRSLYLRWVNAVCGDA

B1: 13mer poly-A RNA (ssRNA)
RNA: AAAAAAAAAAAAA
For B1, which Kd is on record?
The Kd was 5.83 ± 1.3 µM.
